Data taken from PMC3873549, “Plant Acyl-CoA:Lysophosphatidylcholine Acyltransferases (LPCATs) Have Different Specificities in Their Forward and Reverse Reactions” (The Journal of Biological Chemistry, 2013).

Substrate: CCCCCCCC/C=C\CCCCCCCC(=O)SCCNC(=O)CCNC(=O)[C@H](O)C(C)(C)COP(=O)(O)OP(=O)(O)OC[C@H]1O[C@@H](n2cnc3c(N)ncnc32)[C@H](O)[C@@H]1OP(=O)(O)O
Assay: cells, lysate or membranes
Type: cell-based, Arabidopsis thaliana
Conditions: acyl acceptor sn-1-18:1-LPC, pH 7.2, 30 °C, labelled compound

B1: AtLPCAT1 (Arabidopsis thaliana) (protein)
chain: MDMSSMAGSIGVSVAVLRFLLCFVATIPVSFACRIVPSRLGKHLYAAASGAFLSYLSFGFSSNLHFLVPMTIGYASMAIYRPKCGIITFFLGFAYLIGCHVFYMSGDAWKEGGIDSTGALMVLTLKVISCSMNYNDGMLKEEGLREAQKKNRLIQMPSLIEYFGYCLCCGSHFAGPVYEMKDYLEWTEGKGIWDTTEKRKKPSPYGATIRAILQAAICMALYLYLVPQYPLTRFTEPVYQEWGFLRKFSYQYMAGFTARWKYYFIWSISEASIIISGLGFSGWTDDASPKPKWDRAKNVDILGVELAKSAVQIPLVWNIQVSTWLRHYVYERLVQNGKKAGFFQLLATQTVSAVWHGLYPGYMMFFVQSALMIAGSRVIYRWQQAISPKMAMLRNIMVFINFLYTVLVLNYSAVGFMVLSLHETLTAYGSVYYIGTIIPVGLILLSYVVPAKPSRPKPRKEE
Km: 18 µM
